# Experiment: soluble fraction after stress (log2 fold change); higher = more stays soluble; pooled small domains, quantitative proteomics
# Conditions: stress: pH 4
# Outline: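 Aggregation propensity is estimated from the fold change in each domain's soluble amount after acid stress. Pooled small-domain libraries were stressed at pH 4, and higher log2 values mean more stayed soluble.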
row,Sequence,soluble fraction (log2)
1,HMNEYIVSAEQEGMRLDVFLTEQMEGSRSYIQSLIKGGHVTVGDKVGKANLRLTPDTVIHVEIPEPE,-0.166
2,HMSQDEKITNYIYEGNKNTQTEAFVEAEKSYRKALSLSPEKPEALYNLGNTHFLDKQYDEASQRFF,-0.111
3,HMDGIPVPDVKGTVEAEATATLKNSGFEVTKTQDFSDTVEAGKVISQNPAGGSSAASGSSVTLVISQGPN,-0.232
4,HMKQNNYATKKELNFFVSRLISLLSYRDFFNPIEKKESMINNIEAIFTRSSLTSQELRTLHGIISNLVE,-1.27
5,HMNLVELKHAEEFNTLIIQDIGGRMKPAHTLASELVRKVFHNDDFNGIDPRKVFLSIIENSKVWFNVPFI,-0.361
6,HMFLPETEVKSFFHRGITKISPSLAMDIADFFRMPFAVILKRALALEVISDEQYRSFMTVKPEHV,-0.0531
7,HMELPPLEPIDRILVVQQPINIREQPGVLAKKIGRVSSGETLTILAKVSGQDWYFVETDNGGRGYVFKRV,-0.222
8,HMDKSFLQSLHLIALGIVKNQMDPWELVNGWVEYYLKNKDKYIDHPNLKAVAVLKMKGLFIDHFRKS,-2.21
9,HMGRELDLNQRVYDFIHDIADEVRTDEGTFSANQMMERFLFPGDLQSVPIGRLSGGERRRLYLLSVLMVKI,-1.15
10,HMDEPGAGYKWREDVLLRVMASHGIEESLRDDFVRHAVGFDNDDNMYLKKVEIENAAAAWVAN,-1.36
11,HMSEYTRGELVSSLEAGEVAAVSIRPNRETPTGEAQIVLSDGQHRVLYVTDVREIEELVSSYGLNPQVEK,-0.233
12,HMITKAIELAEEAEKETVWLGVWEHNHPAQKFYQSLGFVKTDEHDFYMGNERHTDYTMTKQLK,-0.958
13,HMLTKAEEQVMDYLWKLEKAFVKDILDEFPEPKPAYTTVSTMVRILEKKGMVGYTAYGKNHQYYPL,-1.18
14,HMIHMNMGQKINQLRLQKGFTLEELGNLVGVGKSTVRKWENGMIANMKRDKILLVAEALDTSPAYLMGWD,-0.462
15,HMIESFQNGLVEHDQFTRPNPWVTPNFSKIEVPSILLSGKHADIDLWKHQNSIENTKKNRPDLFKNYLKKN,-0.357
16,HMSDIQKGTQINLVNEPLYVSSKTSIVSTYKTGTYYTWGFEANNRIAITNKLENIGVKGQVTGWINKP,0.0239
17,HMEFENIEQRKQYWSDLYRELKAGQDAYAKELKKGTEGYTQDELDILKEFTDEAKKQMEAAGVEATDEFAS,-0.176
18,HMARAGKLAQDMAVWTKETMLNTERNFISLRHFKRELLRRTLAPGESEQTVRAMEEAGYIQVKDGLVFPIK,-0.511
19,HMRAEELEQFVERLKNEVMNNFPLKELSDNELREKIENLVEIRLANVYVSIEQRVAIAEQIYSSIR,-0.633

row,Sequence,soluble fraction (log2)
1,HMDSLQDFAYEEIKKRIQNGEYAPGTKLNTQEISDSLGISRSPVLAAINRLIALGLVEATPRKGTTVA,-0.0359
2,HMDRNIVYSDFIRSVNQGQVSEVLVQGDNIRGRYLNGKVFQTFAPKDPSLISTLRNKGVRISAEPA,-0.022
3,HMSWNIHEAVEYYKGQDAPQNQFALVELLKEVQEHNGGVLTDIAVEEIAALLNTKVTFLNAVIKRYPSLK,-0.163
4,HMKPQKRYLFEEVLTFLKHNSEKSFNYKQLGAAMEISNESDRFTLLETLEELKHQGFVVEKEIGKYQAKE,0.37
5,HMSKEDDSLVVTFRRMLLEEVDLHELSRIDANQRRARLERVIAHLVSREGVILSASERNQLVRRVVDEAV,-0.801
6,HMNRNEFMERLEYLLSDIPQEEKADAIAYYRDYLEEAGDDAGKAIQDFGSPERIAAMIRSELAG,-0.841
7,HMNQIDDADRKRVVDEVAGQFSSMSLTEMRSDREKLLSRIIPQVQTTLNRLGLQTIDVEGIAREVIARVG,-0.288
8,HMSKIRSEINKFSSDADKPILEWLFERYHWASQWRFVARFSEQRYGVLSYEINRVWEPTIEGRALYDQL,-1.45
9,HMSSGKTGTITLQPKQTVYGITKQYKISEADLRKLNPQLDSNLKIGDKITLPLDNIQRYSDSSSNVAQT,0.22
10,HMPAFGALTLRQRDLVELIAQGLDNSQIAARLGLAEKTVRNHITMIFNKLEMENRSQVIVRARESGFGAVR,-0.228
11,HMTLDSLEKLSVNDLEKMLVNMPVGYKTIFLLSVIDEYSHKEIGELLGITPETSRSQLFRAIKWIKTNIF,-0.706
12,HMPPAIKTLMFMIQNKSLLKSPKQLAVVQQQLKKIKGVRDVLILLEEGKVMLKVNKHETIHEASIIRLLGG,0.00198
13,HMKKPAERRKELVDAAAHLFAEKGYENTSVRDILDAVGGAPGMFYYYFKSKQDIYVAVMEDF,-1.1
14,HMKGEIEELLYEEVTKDNNTTFLRIYIKLNDEYNTLLNLGIIGIKTEEKVNELVNLGYKKVL,-2.54
15,HMVFTEEEMLEKIKEYLSTNSYINRRAMETLFNLRQSTALKWLGHFTEIGVLRKEGERNYPVYFLNN,-0.159
16,HMPAAKARTWQEATHAFQRDFLLETLRRARFNAADAADQLGLARPALYTTAKRLGLDLVAERQRWEAEAH,0.043
17,HMNSVAASLREISIKVSGTEDADKVSRLQELSQMPKLDASGIAEANTLLEQLRAKYGDLGLSVDTARGRIV,0.0674
18,HMSTILERLIMLQEQSGMNQKQLQKELGLSNSAFSDWKKGKGRPSVEALVRFSEFFGVSMDWLAFG,-0.845

# — the domain aggregation screens of Martell et al. (2025)
